The target of test [1] is T1, 11-26.
T1 construct: overlapping 16-mer of human AMHR2-ED; also called p11-26; AMHR2-ED 11-26 16-mer peptide
T1 peptide: EAPGVRGSTKTLGELL
The experiment in a line: direct ELISA on plated overlapping 16-mer peptides of AMHR2-ED, 4D12G1 as primary antibody. On the procedure: (§1) Competitive ELISAs were used to determine the AMHR2-ED sequence recognized by the 4D12G1 mAb. A set of overlapping 16-mer peptides spanning the entire 132 amino acid sequence of human AMHR2-ED was generated. Each peptide shifted by one amino acid and all cysteine residues were replaced by serine to avoid disulfide bond formation (Thermo Fisher). Individual 16-mer peptides were plated in solid phase in microtiter wells, increasing concentrations of each 16-mer peptide were incubated with the 4D12G1 mAb in liquid phase, and ELISAs were performed as described above. The binding site of the 4D12G1 mAb was confirmed by competitive ELISA using overlapping peptides containing alanine substitutions for each amino acid spanning the immunoreactive region of AMEIR2-ED. The substituted peptides were used in liquid phase with the 4D12G1 mAb to determine binding inhibition to rhAMHR2-ED in solid phase. The AMHR2-ED binding sequence of the 4D12G1 mAb and the critical AMHR2-ED residues for such binding were confirmed by SPOT peptide arrays. Peptides spanning the AMHR2-ED 9-40 immunoreactive region and ranging from 4-16-mers in length were synthesized >90% pure on cellulose membranes (JPT Peptide Technologies, Berlin, Germany), treated overnight with blocking buffer (Thermo Fisher), followed by treatment with the 4D12G1 mAb at 1.0 μg/ml for 3 hours at room temperature, followed by three washes with PBS containing 0.01% Tween-20 (Bio-Rad). The membranes were then treated with a 1:10,000 dilution of an HRP-conjugated rabbit anti-mouse IgG (MilliporeSigma) followed by three washes with PBS containing 0.01% Tween-20 (Bio-Rad). Bound antibody was detected using the HyGLO chemiluminescence system (Thomas Scientific).
(§2) An overlapping series of 16-mer peptides spanning the entire 132 amino acid sequence of human AMHR2-ED (FIG. 3A) with moving single amino acid shifts were plated for direct ELISA testing using the 4D12G1 mAb as primary antibody. […] To determine amino acids recognized by the 4D12G1 mAb, an overlapping series of peptides spanning the immunoreactive sequence comprising AMHR2-ED 13-30 were synthesized with alanine substitutions at each N-terminal residue or with glycine substitutions for any native N-terminal alanine.

Test [2] has as its target T2, 12-27.
T2 construct: overlapping 16-mer of human AMHR2-ED; also called p12-27; AMHR2-ED 12-27 16-mer peptide
T2 peptide: APGVRGSTKTLGELLD
The test is described as above. The method, then: as §1, §2

Test [3] concerns the target T3, 13-28.
T3 construct: overlapping 16-mer of human AMHR2-ED; also called p13-28; AMHR2-ED 13-28 16-mer peptide
T3 peptide: PGVRGSTKTLGELLDT
The test is described as above. The method, then:
as §1, §2

Test [4] has as its target T4, 14-29.
T4 construct: overlapping 16-mer of human AMHR2-ED; also called p14-29; AMHR2-ED 14-29 16-mer peptide
T4 peptide: GVRGSTKTLGELLDTG
The test is described as above. On the procedure:
as §1, §2

For test [5], the target named is T5, 15-30.
T5 construct: overlapping 16-mer of human AMHR2-ED; also called p15-30; AMHR2-ED 15-30 16-mer peptide
T5 peptide: VRGSTKTLGELLDTGT
Described as above. On the procedure: as §1, §2

The target in test [6] is T6, 16-31.
T6 construct: overlapping 16-mer of human AMHR2-ED; also called p16-31; AMHR2-ED 16-31 16-mer peptide
T6 peptide: RGSTKTLGELLDTGTE
Described as above. On the procedure: as §1, §2

In test [7] the target is T7, 17-32.
T7 construct: overlapping 16-mer of human AMHR2-ED; also called p17-32; AMHR2-ED 17-32 16-mer peptide
T7 peptide: GSTKTLGELLDTGTEL
The test is described as above. The method, then: as §1, §2

In test [8] the target is T8, rβ-Casein (mouse, UniProt P10598).
T8 construct: recombinant; also called recombinant mouse β-casein; recombinant β-casein
T8 sequence (P10598 16-231 limits assumed): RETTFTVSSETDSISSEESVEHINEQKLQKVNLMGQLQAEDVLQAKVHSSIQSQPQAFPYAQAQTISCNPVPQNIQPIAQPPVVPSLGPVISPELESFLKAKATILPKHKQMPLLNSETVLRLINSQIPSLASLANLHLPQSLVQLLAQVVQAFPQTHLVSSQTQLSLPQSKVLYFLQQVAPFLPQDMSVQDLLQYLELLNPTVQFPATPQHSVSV
The experiment in a line: competitive ELISA: 4D12G1 pre-incubated with rising rβ-casein, then added to plates coated with rhAMHR2-ED. On the procedure: The specificity of the mAbs was determined by competitive ELISA. Briefly, mAbs were incubated with increasing concentrations of rhAMHR2-ED in liquid phase PBS containing 0.02% Tween-20 (Bio-Rad) for 24 hours at 4° C. The antigen-antibody mixtures were added to the 96-well Maxisorp microtiter plates (Corning Life Sciences, Tewksbury, Mass.) pre-coated with 4 μg/ml rhAMHR2-ED followed by blocking with 1% BSA (Sigma-Aldrich). Recombinant mouse β-casein was used as the specificity control. Wells were then incubated with a secondary anti-mouse IgG conjugated with horseradish peroxidase (HRP; MilliporeSigma, Burlington, Mass.) followed by addition of 2,2′-Azino-bis(3-ethylbenzothiazoline-6-sulfonic acid) diammonium salt (ABTS) substrate (Sigma-Aldrich). Optical density was determined by absorbance at 405 nm.
(In an ELISA, binding on a coated surface is turned into a signal by an enzyme label.)

B1: 4D12G1 mAb (antibody, IgG1, V domains shown)
VH: DVKLVESGGGLVKLGGSLKLSCAASGFTFSRYFMSWVRQTPEKRLELVAAINSDGGRTYYPDTVKGRFTISRDNAKNTLYLQMSSLKSEDTALYYCTRHIYSYYEDYFDYWGQGTTLTVSS
VL: DVVMTQTPLSLPVSLGDQASISCRSSQSLVHSNGNTYLHWYLQKPGQSPKLLIYKVSKRFSGVPDRFSGSGSGTDFTLKISRVEAEDLGVYFCSQSTHVYTFGGGTKLEIK
notes: also called 4D12G1 IgG1 mAb
B1: the binding result in test [1], in test [2], in test [3], in test [4], in test [5] and in test [6] was “binds” throughout. Further, the binding result in test [7] is “binds”; in test [8] it was “no binding (tested: 100 µg/ml)”.

The values are drawn from patent US20230078601A1 (CLEVELAND CLINIC FOUNDATION, published 2023).
